In patent US20090081760A1, “DMO METHODS AND COMPOSITIONS” (priority 2007, published 2009):

Columns and labels:
Dicamba = test: LC-MS/MS screen for oxygenase (DMO) activity: E. coli liquid culture expressing ddmC or a variant, grown with dicamba, DCSA detected in supernatant; type: cell-based
Method: An LC-MS/MS screen for oxygenase activity was used to detect DCSA. The method comprises a two stage process made up of a liquid cell culture assay coupled to an LC-MS/MS detection screen. In the liquid cell culture stage, the gene of interest, i.e. ddmC or a variant thereof, was cloned under the control of a promoter (e.g. T7 promoter, pET vector) and transformed into an E. coli host cell. […] Cells were spun down, and the supernatant was filtered and diluted tenfold with the inclusion of 8 μM salicylic acid as an internal standard. Samples of the supernatant, and/or optionally the cell pellet (or lysate thereof), from this first stage were analyzed for DCSA levels (i.e. DMO activity level) by LC-MS/MS.
While many oxygenases such as DMO are multi component systems requiring other helper enzymes for activity, it was observed that components in E. coli may substitute for these helper enzymes or functions. Thus, transformation of E. coli with a single “oxygenase” gene from a multi component system nevertheless results in measurable activity for the gene alone, even without other components being co-transformed into the same E. coli cell. Activity is observed because, in E. coli cells, surrogates with homology to the original helper enzymes (e.g. ferredoxin and reductase) may be utilized. Additionally, E. coli can take up substrate (e.g. dicamba) and excrete the product (e.g. DCSA) into the media supernatant, allowing for the speed and simplicity of this cell based screen. No lysis of cells is required. Alternatively, an HPLC-based assay for DMO activity may be utilized. Promising variants were used as templates for additional rounds DOT and or other mutagenesis methods in an iterative manner. […]
Sets of saturation mutagenesis primers (using NNS degenerate triplets) for 31 residues at the active site and involved in the electron transfer chain as indicated in Table 28 were designed and used to introduce mutations into the ddmC gene by means of terminated PCR on the template (ddmC gene with His tag and two changes, T2S+I123L (SEQ ID NO:23) in pMV4 vector (Modular Genetics, Cambridge, Mass.). Resulting PCR products were treated with DpnI to remove the parental template molecules, self-annealed and transformed into chemically competent E. coli Top10 F′ (Invitrogen, Carlsbad, Calif.). Standard DNA cloning methods were utilized (e.g. Sambrook et al., 1989). The individual colonies were grown in liquid culture. DNA was isolated by a standard miniprep procedure and used to transform the chemically competent E. coli (e.g. BL21(DE3)). […] Cells were spun down, and the supernatant was filtered and diluted tenfold with 8 μM salicylic acid as an internal standard. The DCSA levels (i.e. DMO activity level) were determined by LC-MS analysis as described above (e.g. Example 8).
Additional single substitution variants of DMO at residues corresponding to interaction (e.g. subunit interface) domains and the ferredoxin binding site were also prepared and assayed for their effect on enzymatic activity (See also Examples 8A, 8B) by the LC/MS screen. In most cases shown in Table 29, one conservative and one neutral substitution was tried at a given residue.
Table 30 lists DMO activity data (by LC/MS screen) for 58 variants relative to ddmC_M—6his (the wild type ddmC sequence with an N-terminal His tag (SEQ ID NO: 154), while Table 31 lists DMO activity data (by LC/MS screen) for 1685 variants relative to ddmC_RLE6his (the wild type ddmC sequence with T2S and I123L mutations (SEQ ID NO:23), and a C-terminal 6×His tag). The numbering of residues is based on the numbering found in SEQ ID NO:2 or SEQ ID NO:3.

[1] = molecular target: the molecule itself; test: X-ray crystal structure (homotrimer in the asymmetric unit)

B1: Control: control (wild type) DMO of the Table 29 LC/MS screen (protein, UniProt Q5S3I3 2-339, looked up)
Dicamba O-demethylase, …: TFVRNAWYVAALPEELSEKPLGRTILDTPLALYRQPDGVVAALLDICPHRFAPLSDGILVNGHLQCPYHGLEFDGGGQCVHNPHGNGARPASLNVRSFPVVERDALIWIWPGDPALADPGAIPDFGCRVDPAYRTVGGYGHVDCNYKLLVDNLMDLGHAQYVHRANAQTDAFDRLEREVIVGDGEIQALMKIPGGTPSVLMAKFLRGANTPVDAWNDIRWNKVSAMLNFIAVAPEGTPKEQSIHSRGTHILTPETEASCHYFFGSSRNFGIDDPEMDGVLRSWQAQALVKEDKVVVEAIERRRAYVEANGIRPAMLSCDEAAVRVSREIEKLEQLEAA
Control DCSA Produced (ppm) Set 1 average (±SD) (Dicamba; Set 1 average): 38.22 ± 7.81 ppm | Control DCSA Produced (ppm) Set 2 average (±SD) (Dicamba; Set 2 average): 26.59 ± 4.96 ppm | Control DCSA Produced (ppm) Set 3 average (±SD) (Dicamba; Set 3 average): 38.00 ± 6.87 ppm

B2: dicamba monooxygenase (DMO) (enzyme)
chain: MATFVRNAWYVAALPEELSEKPLGRTILDTPLALYRQPDGVVAALLDICPHRFAPLSDGILVNGHLQCPYHGLEFDGGGQCVHNPHGNGARPASLNVRSFPVVERDALIWIWPGDPALADPGAIPDFGCRVDPAYRTVGGYGHVDCNYKLLVDNLMDLGHAQYVHRANAQTDAFDRLEREVIVGDGEIQALMKIPGGTPSVLMAKFLRGANTPVDAWNDIRWNKVSAMLNFIAVAPEGTPKEQSIHSRGTHILTPETEASCHYFFGSSRNFGIDDPEMDGVLRSWQAQALVKEDKVVVEAIERRRAYVEANGIRPAMLSCDEAAVRVSREIEKLEQLEAARLEHHHHHH
notes: also called DMOw; DdmC
binding result [1]: binds

B3: R248K: DMO substitution variant (protein)
chain: MATFVRNAWYVAALPEELSEKPLGRTILDTPLALYRQPDGVVAALLDICPHRFAPLSDGILVNGHLQCPYHGLEFDGGGQCVHNPHGNGARPASLNVRSFPVVERDALIWICPGDPALADPGAIPDFGCRVDPAYRTVGGYGHVDCNYKLLVDNLMDLGHAQYVHRANAQTDAFDRLEREVIVGDGEIQALMKIPGGTPSVLMAKFLRGANTPVDAWNDIRWNKVSAMLNFIAVAPEGTPKEQSIHSKGTHILTPETEASCHYFFGSSRNFGIDDPEMDGVLRSWQAQALVKEDKVVVEAIERRRAYVEANGIRPAMLSCDEAAVRVSREIEKLEQLEAARLEHHHHHH
Changed to: K % of control for set (Dicamba; residue changed to K, DCSA relative to control average of the data set): 155.15% | Changed to: K DCSA values (ppm) (Dicamba; residue changed to K, mean +/− SD (n)): 41.25 +/− 4.05 (4) ppm

B4: R248M: DMO substitution variant (protein)
chain: MATFVRNAWYVAALPEELSEKPLGRTILDTPLALYRQPDGVVAALLDICPHRFAPLSDGILVNGHLQCPYHGLEFDGGGQCVHNPHGNGARPASLNVRSFPVVERDALIWICPGDPALADPGAIPDFGCRVDPAYRTVGGYGHVDCNYKLLVDNLMDLGHAQYVHRANAQTDAFDRLEREVIVGDGEIQALMKIPGGTPSVLMAKFLRGANTPVDAWNDIRWNKVSAMLNFIAVAPEGTPKEQSIHSMGTHILTPETEASCHYFFGSSRNFGIDDPEMDGVLRSWQAQALVKEDKVVVEAIERRRAYVEANGIRPAMLSCDEAAVRVSREIEKLEQLEAARLEHHHHHH
Changed to: M % of control for set (Dicamba; residue changed to M, DCSA relative to control average of the data set): 128.37% | Changed to: M DCSA values (ppm) (Dicamba; residue changed to M, mean +/− SD (n)): 34.13 +/− 3.09 (4) ppm

B5: R248L: DMO substitution variant (protein)
chain: MATFVRNAWYVAALPEELSEKPLGRTILDTPLALYRQPDGVVAALLDICPHRFAPLSDGILVNGHLQCPYHGLEFDGGGQCVHNPHGNGARPASLNVRSFPVVERDALIWICPGDPALADPGAIPDFGCRVDPAYRTVGGYGHVDCNYKLLVDNLMDLGHAQYVHRANAQTDAFDRLEREVIVGDGEIQALMKIPGGTPSVLMAKFLRGANTPVDAWNDIRWNKVSAMLNFIAVAPEGTPKEQSIHSLGTHILTPETEASCHYFFGSSRNFGIDDPEMDGVLRSWQAQALVKEDKVVVEAIERRRAYVEANGIRPAMLSCDEAAVRVSREIEKLEQLEAARLEHHHHHH
Changed to: L % of control for set (Dicamba; residue changed to L, DCSA relative to control average of the data set): 153.00% | Changed to: L DCSA values (ppm) (Dicamba; residue changed to L, mean +/− SD (n)): 40.68 +/− 10.77 (4) ppm

B6: L282I: DMO substitution variant (protein)
chain: MATFVRNAWYVAALPEELSEKPLGRTILDTPLALYRQPDGVVAALLDICPHRFAPLSDGILVNGHLQCPYHGLEFDGGGQCVHNPHGNGARPASLNVRSFPVVERDALIWICPGDPALADPGAIPDFGCRVDPAYRTVGGYGHVDCNYKLLVDNLMDLGHAQYVHRANAQTDAFDRLEREVIVGDGEIQALMKIPGGTPSVLMAKFLRGANTPVDAWNDIRWNKVSAMLNFIAVAPEGTPKEQSIHSRGTHILTPETEASCHYFFGSSRNFGIDDPEMDGVIRSWQAQALVKEDKVVVEAIERRRAYVEANGIRPAMLSCDEAAVRVSREIEKLEQLEAARLEHHHHHH
Changed to: I % of control for set (Dicamba; residue changed to I, DCSA relative to control average of the data set): 116.03% | Changed to: I DCSA values (ppm) (Dicamba; residue changed to I, mean +/− SD (n)): 44.35 +/− 1.22 (4) ppm
